Experimental data reported in article PMC4081106 (Nucleic Acids Research, 2014).

Molecular target: the molecule itself
Test: SEC + SEC-MALS

B1: TtcA protein from Escherichia coli, N-terminal hexahistidine-tagged (6his-TtcA) (enzyme, E. coli, UniProt P76055 1-311, looked up)
chain: MQENQQITKKEQYNLNKLQKRLRRNVGEAIADFNMIEEGDRIMVCLSGGKDSYTMLEILRNLQQSAPINFSLVAVNLDQKQPGFPEHVLPEYLEKLGVEYKIVEENTYGIVKEKIPEGKTTCSLCSRLRRGILYRTATELGATKIALGHHRDDILQTLFLNMFYGGKMKGMPPKLMSDDGKHIVIRPLAYCREKDIQRFADAKAFPIIPCNLCGSQPNLQRQVIADMLRDWDKRYPGRIETMFSAMQNVVPSHLCDTNLFDFKGITHGSEVVNGGDLAFDREEIPLQPACWQPEEDENQLDELRLNVVEVK
  stoichiometry N: 2
